This is an account of results in patent publication US20240391996A1 (TAISHO PHARMACEUTICAL, published 2024).

The target of test [1] is T1, recombinant human GH (Pharmaceutical and Medical Device Regulatory Science Society of Japan) (human, UniProt P01241 27-217). As to the kind of experiment: cell-based or functional assay.
Test [2] deals with T1, recombinant human GH (Pharmaceutical …). The test is described as follows: GH-GHR binding inhibition ELISA: biotin-labeled GH (5.5 ng/mL) on captured GHR-hFc, antibody varied. How it is done: The GH-GHR binding inhibitory activity was measured by calculating the inhibition rate of binding signal of biotin-labeled GH to GHR extracellular region protein-human Fc fusion (GHR-hFc) which was immobilized on an ELISA plate via anti-human Fcγ mouse antibody. The biotin-labeled GH was prepared by labeling recombinant GH with EZ-Link Micro NHS-PEG4-Biotinylation kit (Thermo Fisher Scientific Inc.). The specific method is as follows. Anti-human Fcγ mouse antibody (Jackson ImmunoResearch Laboratories, Inc.) diluted to 1 μg/mL PBS was immobilized at 50 μL/well on a 96-well half-area immunoplate, and the plate was blocked with PBS comprising 1% BSA. Next, GHR-hFc (R&D Systems, Inc.) diluted with assay buffer (PBS comprising 0.2% BSA and 0.05% Tween 20) to 0.1 μg/mL was added at 50 μL/well to be captured on the plate. The plate was washed with washing buffer (PBS comprising 0.05% Tween 20), followed by mixing the equivalent amount of biotin-labeled GH diluted with assay buffer to final concentration of 5.5 ng/mL and a sample (anti-GH mouse mAb-comprising sample) diluted with assay buffer, and adding the resultant mixture at 50 μL/well, and the plate was left still at room temperature for 2 hours. […] The reaction was stopped by adding an aqueous solution of 0.5 mol/L H₂SO₄, and then the absorbance at 450 nm was measured with a plate reader.
In general terms: ELISA stands for enzyme-linked immunosorbent assay.

Test [3] addresses T2, placental lactogen (PL) (Protein Laboratories Rehovot Ltd.) (human, UniProt P0DML2 27-217).
T2 construct: also called human placental lactogen; GH-analogous protein
The test is described as follows: competitive ELISA on immobilised human GH; IC50 (human GH)/IC50 (PL) x 100. The method, then: (§1) IC₅₀ (nmol/L) for each of the anti-GH antibodies was determined by concentration-dependent curves of human GH and GH-analogous protein. The cross-reactivity to the GH-analogous protein was calculated by the following formula 3.

The target in test [4] is T1, recombinant human GH (Pharmaceutical …). As to the kind of experiment: cell-based or functional assay. The source holds these as a separate data set.
Test [5] deals with T3, prolactin (PRL) (BBT Boster Immunoleader) (human, UniProt P01236 29-227).
T3 construct: also called human prolactin; GH-analogous protein
T3 sequence (looked up): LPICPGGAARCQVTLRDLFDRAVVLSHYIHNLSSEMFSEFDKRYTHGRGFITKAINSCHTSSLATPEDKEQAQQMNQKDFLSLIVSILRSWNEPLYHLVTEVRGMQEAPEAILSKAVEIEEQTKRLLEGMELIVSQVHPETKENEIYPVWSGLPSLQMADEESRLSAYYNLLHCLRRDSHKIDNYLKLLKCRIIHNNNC
As to the kind of experiment: competitive ELISA on immobilised human GH; IC50 (human GH)/IC50 (PRL) x 100. The method, then:
as §1

The target of test [6] is recombinant cynomolgus monkey GH (cynomolgus monkey). The test is described as follows: SPR (BIACORE 8K+), antibody captured by anti-human IgG (Fc) on CM5 chip, GH as analyte. How it is done: (§2) The binding properties of the recombinant anti-GH humanized antibody (Hu-13H02) and the Fc mutant thereof (Hu-13H02m) prepared in Example 11, and the chimeric antibody (Ch-13H02) prepared in Example 8 to the human GH (Pharmaceutical and Medical Device Regulatory Science Society of Japan) and the monkey GH (Example 3) were measured with SPR using BIACORE 8K+ (GE Healthcare Inc.). The antibody samples (1 μg/mL) of the three antibodies (Hu-13H02, Hu-13H02m, and Ch-13H02) were captured by anti-human IgG (Fc) antibody immobilized on a CM5 sensor chip, respectively. Next, the human GH ranging from 0.13 to 8.0 nmol/L, or the monkey GH ranging from 0.50 to 32 nmol/L was added to calculate binding and dissociation parameters.
In general terms: In SPR one partner is held on a chip, and binding of the other changes the refractive index at the surface.

Test [7] concerns the target T1, recombinant human GH (Pharmaceutical …). Described as above. How it is done: as §2
The target in test [8] is recombinant cynomolgus monkey GH (cynomolgus monkey). As to the kind of experiment: cell-based or functional assay.
In test [9] the target is T1, recombinant human GH (Pharmaceutical …). The test is described as follows: cell-based or functional assay. This is another data set of the same source.

Read-outs that look alike come from different tables or passages of the source.

Sequence of recombinant cynomolgus monkey GH (cynomolgus monkey) (P33093 27-217): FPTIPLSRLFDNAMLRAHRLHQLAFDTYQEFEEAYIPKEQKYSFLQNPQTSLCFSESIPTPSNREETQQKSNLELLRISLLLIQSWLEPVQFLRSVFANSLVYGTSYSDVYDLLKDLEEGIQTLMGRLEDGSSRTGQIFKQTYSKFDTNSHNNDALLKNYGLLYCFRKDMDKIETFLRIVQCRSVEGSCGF
T2 sequence (P0DML2 27-217 limits assumed): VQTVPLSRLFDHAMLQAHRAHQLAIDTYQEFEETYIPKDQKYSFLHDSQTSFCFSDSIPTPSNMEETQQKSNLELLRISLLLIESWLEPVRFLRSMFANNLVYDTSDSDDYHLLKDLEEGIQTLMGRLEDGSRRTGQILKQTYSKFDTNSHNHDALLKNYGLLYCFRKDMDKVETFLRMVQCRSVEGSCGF
T1 sequence (P01241 27-217 limits assumed): as the sequence (P33093 27-217) above, with T105A, Y107D, D109N, S133P, N153D, I173V counted along it

B1: anti-GH mouse mAb 13H02 (antibody, mouse IgG2a, V domains shown)
VH: QGQMQQSGGELVNPGSSVKMSCKTSGFTFTSSEISWLKQKPGQSLEWIAWIYPGTGSSKFNQKFTGKAQLTAETSSSTAYMQLSSLTSEDSAIYYCARRGFFGGSFDYWGQGTTLTISS
VL: QIVLAQSPAIMSASLGERVTMTCTATSSVSSSYLHWYQQKPGSSPKLWIYSTSNLASGVPARFSGSGSGTSYSLTISSMEAEDAATYYCHQYHHSPPTFGAGTKLELK
notes: also called parent mouse antibody (13H02)
For B1, the “GH-dependent Nb2 cell proliferation inhibitory activity (IC50)” value in test [1] worked out at 0.00336 nM. For the same molecule, in test [2], the IC50 amounted to 0.0653 nM.

B2: recombinant anti-GH mouse-human chimeric mAb (Ch-13H02) (antibody, human IgG1, V domains shown)
VH: QGQMQQSGGELVNPGSSVKMSCKTSGFTFTSSEISWLKQKPGQSLEWIAWIYPGTGSSKFNQKFTGKAQLTAETSSSTAYMQLSSLTSEDSAIYYCARRGFFGGSFDYWGQGTTLTISS
VL: QIVLAQSPAIMSASLGERVTMTCTATSSVSSSYLHWYQQKPGSSPKLWIYSTSNLASGVPARFSGSGSGTSYSLTISSMEAEDAATYYCHQYHHSPPTFGAGTKLELK
notes: also called Ch-13H2; anti-GH chimeric antibody
In the case of B2, the cross-reactivity in test [3] and in test [5] was < 1% in each case. Also, the “GH-dependent Nb2 cell proliferation inhibitory activity (IC50)” value in test [4] stood at 0.00627 nM. For the same molecule, the Kd was 0.074 nM in test [6] and 0.012 nM in test [7]. Also, the values for the koff in test [6] and in test [7] were 3.4e-05 s⁻¹ and 2.4e-05 s⁻¹, respectively. Besides, the results for the kon in test [6] and in test [7] were 450000 M⁻¹ s⁻¹ and 1.9e+06 M⁻¹ s⁻¹, respectively. Moreover, the “Neutralizing activity in GH-dependent Nb2 cell proliferation inhibition assay (IC50)” value in [8] was 0.0136 nM; in test [9], 0.00265 nM.

B3: recombinant anti-GH humanized antibody (Hu-13H02) (antibody, human IgG1, V domains shown)
VH: QVQMVQSGAEVKKPGASVKVSCKASGFTFTSSEISWLRQAPGQRLEWIAWIYPGTGSSKFNQKFTGKATLTADTSASTAYMELSSLRSEDTAVYYCARRGFFGGSFDYWGQGTTVTVSS
VL: DIQLTQSPSFLSASVGDRVTITCTATSSVSSSYLHWYQQKPGKAPKLWIYSTSNLASGVPSRFSGSGSGTEFTLTISSLQPEDFATYYCHQYHHSPPTFGGGTKVEIK
notes: also called humanized 13H02
Turning to B3, the cross-reactivity in test [3] is < 1%. Besides, the cross-reactivity in test [5] was < 1%. In [6], the Kd was 0.13 nM, the koff amounted to 6.2e-05 s⁻¹ and the kon stood at 470000 M⁻¹ s⁻¹. Further, in [8], the “Neutralizing activity in GH-dependent Nb2 cell proliferation inhibition assay (IC50)” value is 0.048 nM.

B4: anti-GH humanized antibody Fc mutant (Hu-13H02m) (antibody, human IgG1, kappa, V domains shown)
VH: QVQMVQSGAEVKKPGASVKVSCKASGFTFTSSEISWLRQAPGQRLEWIAWIYPGTGSSKFNQKFTGKATLTADTSASTAYMELSSLRSEDTAVYYCARRGFFGGSFDYWGQGTTVTVSS
VL: DIQLTQSPSFLSASVGDRVTITCTATSSVSSSYLHWYQQKPGKAPKLWIYSTSNLASGVPSRFSGSGSGTEFTLTISSLQPEDFATYYCHQYHHSPPTFGGGTKVEIKR
notes: also called Fc variant of Hu-13H02
As for B4, the cross-reactivity in [3] is < 1%. Moreover, the cross-reactivity in test [5] is < 1%. Besides, in [6], the Kd worked out at 0.13 nM, the koff amounted to 6.9e-05 s⁻¹ and the kon was found to be 520000 M⁻¹ s⁻¹. In addition, the “Neutralizing activity in GH-dependent Nb2 cell proliferation inhibition assay (IC50)” value in [8] is 0.0301 nM.

As a reminder, the IC50 is the point on the concentration scale where inhibition reaches its midpoint. As usually defined, the Kd is the concentration at which binding is half-saturated. As a reminder, the koff is a measure of how fast the partners let go of each other. For orientation: kon means a measure of how fast the partners come together.
